One assay deals with T1, HLA-A*11:01 (human).
T1 construct: Recombinant MHC class I molecule without the test peptide; the peptide is the other partner
In words: REVEAL MHC-peptide binding assay, recombinant HLA-A*11:01. The procedure: (§1) Specifically, assessment was of a series of overlapping 9-mer peptides derived from the sequence […] (set forth in SEQ ID NO: 7), which contains a portion of the CD28 transmembrane domain and 4-1BB costimulatory domain spanning the junction between the domains (bond joining the two amino acids noted in underline). In addition, a series of overlapping 9-mer peptides of each of a number of different variants of this portion also were assessed, each variant containing a mutation or mutations in this region as described in Example 2.
(§2) The various 9-mer overlapping peptides were synthesized and their purity tested by MALDI-TOF Mass Spectrometry.

For another assay, the target named is T2, HLA-B*08:01 (human).
T2 construct: Recombinant MHC class I molecule without the test peptide; the peptide is the other partner
In words: REVEAL MHC-peptide binding assay, recombinant HLA-B*08:01. As to the method: as §1, §2

38 molecules from patent publication US20180355014A1 (JUNO THERAPEUTICS, published 2018) can be followed below.

B1: VAFIIFWVA (SEQ ID NO: 44) (peptide)
peptide: VAFIIFWVA
notes: synthetic 9-mer; the entry already carries the mutation
Turning to B1, in the assay with HLA-A*11:01, the “In Vitro Score” value is 2.8 % of positive control peptide.

B2: VAFIIFWVH (SEQ ID NO: 37) (peptide)
peptide: VAFIIFWVH
notes: as for B1
Consider B2, for which the “In Vitro Score” value is 0 % of positive control peptide with HLA-B*08:01 and 12.3 % of positive control peptide with HLA-A*11:01.

B3: VAFIIFWVQ (SEQ ID NO: 50) (peptide)
peptide: VAFIIFWVQ
notes: as for B1
Consider B3, for which the “In Vitro Score” value in the assay with HLA-A*11:01 is 3.9 % of positive control peptide.
For WVKRGRKKL (synthetic 9-mer) [WVKRGRKKL (SEQ ID NO: 22)], the “In Vitro Score” value in the assay with HLA-B*08:01 is 28.5 % of positive control peptide; with HLA-A*11:01, 4.8 % of positive control peptide.

B4: WVKRGLKKL (SEQ ID NO: 64) (peptide)
peptide: WVKRGLKKL
notes: as for B1
For B4, the entries for the “In Vitro Score” value with HLA-B*08:01 and with HLA-A*11:01 were 65.7 % of positive control peptide and 22.1 % of positive control peptide, respectively.

B5: WVHRGRKKL (SEQ ID NO: 43) (peptide)
peptide: WVHRGRKKL
notes: as for B1
As for B5, the “In Vitro Score” value with HLA-B*08:01 is 19.2 % of positive control peptide; in the assay with HLA-A*11:01, 5.6 % of positive control peptide.

B6: WVQRGAKKL (SEQ ID NO: 84) (peptide)
peptide: WVQRGAKKL
notes: synthetic 9-mer; the entry already carries the mutations
For the molecule B6, the results for the “In Vitro Score” value with HLA-B*08:01 and in the assay with HLA-A*11:01 were 11.4 % of positive control peptide and 3.8 % of positive control peptide, respectively.

B7: WVKRGRKKS (SEQ ID NO: 89) (peptide)
peptide: WVKRGRKKS
notes: as for B1
For the molecule B7, the results for the “In Vitro Score” value in the assay with HLA-B*08:01 and with HLA-A*11:01 were 4.3 % of positive control peptide and 6.7 % of positive control peptide, respectively.

B8: WVSRGRKKL (SEQ ID NO: 29) (peptide)
peptide: WVSRGRKKL
notes: as for B1
B8: the “In Vitro Score” value was 6.2 % of positive control peptide with HLA-B*08:01 and 4.4 % of positive control peptide with HLA-A*11:01.

B9: WVQRGSKKL (SEQ ID NO: 80) (peptide)
peptide: WVQRGSKKL
notes: as for B6
B9: in the assay with HLA-A*11:01, the “In Vitro Score” value was 5.9 % of positive control peptide.

B10: WVLRGRKKL (SEQ ID NO: 36) (peptide)
peptide: WVLRGRKKL
notes: as for B1
On to B10, for which the “In Vitro Score” value in the assay with HLA-B*08:01 is 4 % of positive control peptide; with HLA-A*11:01, 3.2 % of positive control peptide.
On the same counts, the results for AFIIFWVKR (synthetic 9-mer) [AFIIFWVKR (SEQ ID NO: 17)] are 1.9 % of positive control peptide and 25.9 % of positive control peptide.

B11: AFIIFWVLR (SEQ ID NO: 31) (peptide)
peptide: AFIIFWVLR
notes: as for B1
For B11, the “In Vitro Score” value with HLA-B*08:01 was 0.2 % of positive control peptide; in the assay with HLA-A*11:01, 17.2 % of positive control peptide.

B12: AFIIFWVQR (SEQ ID NO: 51) (peptide)
peptide: AFIIFWVQR
notes: as for B1
For the molecule B12, the entries for the “In Vitro Score” value with HLA-B*08:01 and in the assay with HLA-A*11:01 were 0 % of positive control peptide and 15 % of positive control peptide, respectively.
On the same counts, the results for FWVKRGRKK (synthetic 9-mer) [FWVKRGRKK (SEQ ID NO: 21)] are 0 % of positive control peptide and 6.5 % of positive control peptide.

B13: FWVQRGAKK (SEQ ID NO: 83) (peptide)
peptide: FWVQRGAKK
notes: as for B6
Take B13: the “In Vitro Score” value is 0 % of positive control peptide with HLA-B*08:01 and 18.3 % of positive control peptide with HLA-A*11:01.

B14: FWVKRGLKK (SEQ ID NO: 63) (peptide)
peptide: FWVKRGLKK
notes: as for B1
Consider B14, for which, in the assay with HLA-A*11:01, the “In Vitro Score” value was 25.3 % of positive control peptide.

B15: FWVKRGHKK (SEQ ID NO: 67) (peptide)
peptide: FWVKRGHKK
notes: as for B1
Consider B15, for which the entries for the “In Vitro Score” value with HLA-B*08:01 and with HLA-A*11:01 were 0.4 % of positive control peptide and 27.6 % of positive control peptide, respectively.

B16: FWVQRGNKK (SEQ ID NO: 87) (peptide)
peptide: FWVQRGNKK
notes: as for B6
For B16, the “In Vitro Score” value is 0 % of positive control peptide with HLA-B*08:01 and 5.9 % of positive control peptide in the assay with HLA-A*11:01.

B17: FWVKRGAKK (SEQ ID NO: 71) (peptide)
peptide: FWVKRGAKK
notes: as for B1
As for B17, the results for the “In Vitro Score” value in the assay with HLA-B*08:01 and with HLA-A*11:01 were 0.3 % of positive control peptide and 13.2 % of positive control peptide, respectively.

B18: FWVKRGNKK (SEQ ID NO: 75) (peptide)
peptide: FWVKRGNKK
notes: as for B1
In the case of B18, the “In Vitro Score” value with HLA-B*08:01 was 0.1 % of positive control peptide; with HLA-A*11:01, 7.3 % of positive control peptide.

B19: FWVLRGRKK (SEQ ID NO: 35) (peptide)
peptide: FWVLRGRKK
notes: as for B1
Turning to B19, the “In Vitro Score” value was 0 % of positive control peptide with HLA-B*08:01 and 5 % of positive control peptide in the assay with HLA-A*11:01.

B20: FWVARGRKK (SEQ ID NO: 48) (peptide)
peptide: FWVARGRKK
notes: as for B1
Regarding B20, the “In Vitro Score” value in the assay with HLA-B*08:01 was 0 % of positive control peptide.

B21: FWVQRGSKK (SEQ ID NO: 79) (peptide)
peptide: FWVQRGSKK
notes: as for B6
On to B21, for which the “In Vitro Score” value with HLA-B*08:01 was 0 % of positive control peptide; with HLA-A*11:01, 6.8 % of positive control peptide.

B22: FWVQRGRKK (SEQ ID NO: 55) (peptide)
peptide: FWVQRGRKK
notes: as for B1
For B22, the “In Vitro Score” value with HLA-B*08:01 is 1.9 % of positive control peptide; with HLA-A*11:01 it was 5.7 % of positive control peptide.

B23: FWVSRGRKK (SEQ ID NO: 28) (peptide)
peptide: FWVSRGRKK
notes: as for B1
As for B23, the “In Vitro Score” value is 0 % of positive control peptide in the assay with HLA-B*08:01 and 6.3 % of positive control peptide in the assay with HLA-A*11:01.

B24: FWVHRGRKK (SEQ ID NO: 42) (peptide)
peptide: FWVHRGRKK
notes: as for B1
On to B24, for which the “In Vitro Score” value with HLA-B*08:01 was 0 % of positive control peptide; in the assay with HLA-A*11:01, 5.6 % of positive control peptide.

B25: FWVKRGSKK (SEQ ID NO: 59) (peptide)
peptide: FWVKRGSKK
notes: as for B1
For B25, the “In Vitro Score” value is 0.1 % of positive control peptide in the assay with HLA-B*08:01 and 5.6 % of positive control peptide in the assay with HLA-A*11:01.

B26: IIFWVKRGH (SEQ ID NO: 65) (peptide)
peptide: IIFWVKRGH
notes: as for B1
Turning to B26, the “In Vitro Score” value is 0.1 % of positive control peptide in the assay with HLA-B*08:01 and 19.5 % of positive control peptide with HLA-A*11:01.

B27: IIFWVQRGS (SEQ ID NO: 77) (peptide)
peptide: IIFWVQRGS
notes: as for B6
Turning to B27, the figures for the “In Vitro Score” value with HLA-B*08:01 and with HLA-A*11:01 were 0.1 % of positive control peptide and 16.9 % of positive control peptide, respectively.

B28: IIFWVQRGN (SEQ ID NO: 85) (peptide)
peptide: IIFWVQRGN
notes: as for B6
With B28, the “In Vitro Score” value in the assay with HLA-B*08:01 was 0 % of positive control peptide; with HLA-A*11:01 it was 29 % of positive control peptide.
On the same counts, the results for IFWVKRGRK (synthetic 9-mer) [IFWVKRGRK (SEQ ID NO: 20)] are 0.4 % of positive control peptide and 29.3 % of positive control peptide.

B29: IFWVQRGSK (SEQ ID NO: 78) (peptide)
peptide: IFWVQRGSK
notes: as for B6
Regarding B29, the “In Vitro Score” value is 0 % of positive control peptide with HLA-B*08:01 and 103 % of positive control peptide with HLA-A*11:01.

B30: IFWVLRGRK (SEQ ID NO: 34) (peptide)
peptide: IFWVLRGRK
notes: as for B1
In the case of B30, the results for the “In Vitro Score” value with HLA-B*08:01 and with HLA-A*11:01 were 0 % of positive control peptide and 29.3 % of positive control peptide, respectively.
On the same counts, the results for FIIFWVKRG (synthetic 9-mer) [FIIFWVKRG (SEQ ID NO: 18)] are 0.1 % of positive control peptide and 0.4 % of positive control peptide.

B31: FIIFWVSRG (SEQ ID NO: 25) (peptide)
peptide: FIIFWVSRG
notes: as for B1
With B31, the entries for the “In Vitro Score” value in the assay with HLA-B*08:01 and with HLA-A*11:01 were 0.4 % of positive control peptide and 5.1 % of positive control peptide, respectively.

B32: FIIFWVLRG (SEQ ID NO: 32) (peptide)
peptide: FIIFWVLRG
notes: as for B1
On to B32, for which the “In Vitro Score” value was 0.2 % of positive control peptide with HLA-B*08:01 and 2.4 % of positive control peptide in the assay with HLA-A*11:01.

B33: FIIFWVQRG (SEQ ID NO: 52) (peptide)
peptide: FIIFWVQRG
notes: as for B1
In the case of B33, the entries for the “In Vitro Score” value with HLA-B*08:01 and with HLA-A*11:01 were 0.6 % of positive control peptide and 1.5 % of positive control peptide, respectively.
